# Results as given in patent US20260069707A1, “COMBINATION THERAPY WITH ANTIBODY-DRUG CONJUGATES AND HYALURONIDASES” (HALOZYME, INC., priority 2024, published 2026).
# How the values were obtained:
# [1] = Calculation of free payload:ADC following ADC administration
# Experimental: Antibody drug conjugates with thiol-malimide conjugation undergo deconjugation following administration. To assess this deconjugation, free payload: ADC was calculated rather than reverse, because for completely stable antibody, ADC:free payload would be infinity.
# Antibody drug conjugates with thiol-malimide conjugation undergo deconjugation following administration. To assess this deconjugation, free payload: ADC was calculated for specific antibody drug conjugates including Trastuzumab, Polatuzumab, Enfortumab and Tisotumab.
# [2] = Post-injection bleb volume, area, height - caliper measurement; assay type: in vivo, Yucatan miniature pig (Sus scrofa domestica); conditions: Example 8: dupilumab 2 mL; dupilumab + rHuPH20 5 mL; T0
# Experimental: (§1) The needle was inserted vertically into the marked injection site and the HVAI held in place by hand. Target needle insertion depth was ˜10 mm. Injections were timed using a stopwatch. Upon completion of the injection the needle was removed and the HVAI device discarded. Test solution back-leakage was then absorbed to a tared eye-spear for 30 seconds on the injection site and the weight of the eye spear was measured using an analytical balance. The margins of the injection site bleb were marked with a permanent marker and measured for length, width, and height using a digital caliper and recorded then photographed with the standard and 3D cameras. Caliper measurements and photographs were taken immediately post-injection. Local injection sites were qualitatively assessed and graded daily for erythema severity, swelling size appearance, and firmness, using a scoring system described in Table 4 Table 5, and Table 6, respectively.
# Assessment of Local Swelling Volume and Area Using Caliper Measurement and 3D Imaging. Volume and area of post-injection swelling were measured using both caliper measurement and 3D camera image analysis. For caliper measurements a digital caliper was utilized to measure length, width and height of the bleb that formed post-injection. The length and width are defined as the edge to edge measurements of the bleb (i.e., diameter) along their longest axes. These values were manually recorded, and the volume determined using the formula for half of an ellipsoid Vol=(⅔)*π*A*B*C where A=Length/2, B=Width/2 and C=Height.
# Assessment of Post-Injection Bleb Volume, Area and Height (Caliper Measurements). The local injection site swelling (bleb) was marked and measured using a digital caliper.
# [3] = Qualitative assessment of local injection sites (erythema, swelling size, induration); assay type: in vivo, Yucatan miniature pig (Sus scrofa domestica); conditions: Example 8: dupilumab 2 mL; dupilumab + rHuPH20 5 mL; T0, three evaluators
# Experimental: as §1
# Approximately, 24 hours post-dosing of the first injection, each animal was re-anesthetized, and injection sites assessed for erythema, induration and swelling, then photographed and returned to its cage.
# [4] = Calculation of drug to antibody ratio (DAR); conditions: for ADC:free Ab / free Ab:ADC: after adjustment factor
# Excerpt: The Drug-to-Antibody Ratio (DAR) is a critical parameter in antibody drug conjugate development, representing the average number of drug molecules attached to each antibody molecule.
# [5] = Concentration (weight/mL) basis, Unconjugated MMAE/ADC over 28 days
# [6] = Molar basis, Unconjugated MMAE/ADC over 28 days
# [7] = Molar basis, Using molecular weight for the entire linker, MMAE/ADC over 28 days
# [8] = Concentration (weight/mL) basis, unconjugated MMAE/antibody conjugated MMAE over 21 days
# [9] = Molar basis, Using molecular weight for the entire linker
# [10] = Molar basis, different tumor (line after the one using molecular weight for the entire linker)
# [11] = Molar basis, unconjugated MMAE/antibody conjugated MMAE over 21 days
# [12] = Concentration (weight/mL) basis
# [13] = Molar basis, second line, Unconjugated MMAE/ADC over 21 days
substance,measurement,setting,value
Enfortumab vedotin (Padcev),"free payload: ADC, AUC",[1]; [5],0.08%
same,"free payload: ADC, Cmax",[1]; [5],0.02%
same,"free payload: ADC, AUC",[1]; [6],16.4%
same,"free payload: ADC, Cmax",[1]; [6],4.2%
same,"free payload: ADC, AUC",[1]; [7],8.9%
same,"free payload: ADC, Cmax",[1]; [7],2.3%
Polatuzumab vedotin (Polivy),"free payload: ADC, AUC",[1]; [8],1.52%
same,"free payload: ADC, Cmax",[1]; [8],0.46%
same,"free payload: ADC, AUC",[1]; [9],173.1%
same,"free payload: ADC, Cmax",[1]; [9],52.8%
same,"free payload: ADC, AUC","[1]; Molar basis, different tumor",257.1%
same,"free payload: ADC, Cmax","[1]; Molar basis, different tumor",87.2%
same,"free payload: ADC, AUC",[1]; [10],140.2%
same,"free payload: ADC, Cmax",[1]; [10],47.5%
same,"free payload: ADC, AUC",[1]; [11],317.5%
same,"free payload: ADC, Cmax",[1]; [11],96.9%
Tisotumab vedotin (Tivdak),"free payload: ADC, AUC",[1]; [12],0.09%
same,"free payload: ADC, Cmax",[1]; [12],0.01%
same,"free payload: ADC, AUC",[1]; Molar basis,18.5%
same,"free payload: ADC, Cmax",[1]; Molar basis,3.1%
same,"free payload: ADC, AUC",[1]; [13],10.1%
same,"free payload: ADC, Cmax",[1]; [13],1.7%
dupilumab,"Post-injection bleb Area, caliper (Mean ± SEM)",[2],13.1 ± 1.4
same,"Post-injection bleb Volume, caliper (Mean ± SEM)",[2],7.0 ± 1.8
same,Induration Score (Mean ± SEM),[3],2.4 ± 0.4
same,Swelling Score (Mean ± SEM),[3],1.4 ± 0.2
mirvetuximab soravtansine,% DAR remaining (which may be ~ADC/ total Ab),[4]; Day 1,88.4%
same,% DAR remaining after adjustment factor to allow for variability (line without head),[4]; Day 1,70.7%
same,ADC:free Ab,[4]; Day 1,241.3%
same,free Ab:ADC,[4]; Day 1,41.4%
same,% DAR remaining (which may be ~ADC/ total Ab),[4]; Day 7,32.6%
same,% DAR remaining after adjustment factor to allow for variability (line without head),[4]; Day 7,26.0%
same,ADC:free Ab,[4]; Day 7,35.2%
same,free Ab:ADC,[4]; Day 7,283.9%
